{"source": "patent US20130225479A1", "about": "“Methods and Compositions for Treating Inflammation” (The University of North Carolina at Chapel Hill, priority 2010, published 2013)", "key": {"[1]": {"target": "T1, human NLRP1 (full-length) (human, UniProt Q9C000 1-1473, myc or V5 epitope tags in some assays (letters not given, left out); 35S-methionine label in the GST binding assay)", "T1 construct": "also called NLRP1-myc; NLRP1-V5", "T1 sequence": "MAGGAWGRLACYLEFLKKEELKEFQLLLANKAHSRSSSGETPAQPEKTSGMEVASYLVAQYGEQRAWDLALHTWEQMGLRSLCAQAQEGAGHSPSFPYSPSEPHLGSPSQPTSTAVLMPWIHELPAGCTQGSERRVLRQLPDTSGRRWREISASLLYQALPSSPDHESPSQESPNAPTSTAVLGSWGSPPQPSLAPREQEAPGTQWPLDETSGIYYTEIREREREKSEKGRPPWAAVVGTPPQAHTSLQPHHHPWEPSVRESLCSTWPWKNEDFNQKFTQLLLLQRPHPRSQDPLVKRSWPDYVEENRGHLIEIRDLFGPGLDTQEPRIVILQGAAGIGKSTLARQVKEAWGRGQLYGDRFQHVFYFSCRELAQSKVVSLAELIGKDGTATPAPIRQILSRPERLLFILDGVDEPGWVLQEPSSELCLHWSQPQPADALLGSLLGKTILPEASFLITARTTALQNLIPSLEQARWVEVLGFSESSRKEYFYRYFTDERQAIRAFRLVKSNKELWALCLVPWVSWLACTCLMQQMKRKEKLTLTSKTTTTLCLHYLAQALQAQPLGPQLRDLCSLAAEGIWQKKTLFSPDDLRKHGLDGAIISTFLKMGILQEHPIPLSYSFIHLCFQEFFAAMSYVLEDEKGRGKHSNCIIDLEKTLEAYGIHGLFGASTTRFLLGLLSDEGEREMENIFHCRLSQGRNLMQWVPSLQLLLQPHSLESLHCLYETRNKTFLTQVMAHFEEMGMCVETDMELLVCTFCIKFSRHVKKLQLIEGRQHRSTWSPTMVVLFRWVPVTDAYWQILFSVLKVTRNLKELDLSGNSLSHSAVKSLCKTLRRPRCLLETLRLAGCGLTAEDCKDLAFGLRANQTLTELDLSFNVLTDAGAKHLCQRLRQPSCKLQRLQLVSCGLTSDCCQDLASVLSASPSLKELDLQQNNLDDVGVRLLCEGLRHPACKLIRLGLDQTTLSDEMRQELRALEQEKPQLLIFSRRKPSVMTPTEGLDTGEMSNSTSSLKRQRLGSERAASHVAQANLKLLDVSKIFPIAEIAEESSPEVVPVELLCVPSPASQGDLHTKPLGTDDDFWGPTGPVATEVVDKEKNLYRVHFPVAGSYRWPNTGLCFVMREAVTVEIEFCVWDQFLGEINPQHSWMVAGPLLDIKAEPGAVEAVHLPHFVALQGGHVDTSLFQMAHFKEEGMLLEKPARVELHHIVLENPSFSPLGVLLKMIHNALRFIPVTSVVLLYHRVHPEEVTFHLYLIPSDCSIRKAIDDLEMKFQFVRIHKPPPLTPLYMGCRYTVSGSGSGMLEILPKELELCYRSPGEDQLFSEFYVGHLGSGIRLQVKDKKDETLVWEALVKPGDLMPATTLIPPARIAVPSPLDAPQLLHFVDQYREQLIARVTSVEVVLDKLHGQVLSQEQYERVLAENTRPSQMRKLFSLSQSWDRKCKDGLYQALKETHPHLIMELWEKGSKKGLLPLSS", "test": "GST binding assay on glutathione beads with in vitro translated 35S-labeled protein, phosphorimager"}, "NLRP1": {"target": "T2, NLRP1 (Homo sapiens, UniProt Q9C000)", "T2 construct": "host or cells: cell-free coupled transcription/translation", "T2 sequence (Q9C000 1-1473)": "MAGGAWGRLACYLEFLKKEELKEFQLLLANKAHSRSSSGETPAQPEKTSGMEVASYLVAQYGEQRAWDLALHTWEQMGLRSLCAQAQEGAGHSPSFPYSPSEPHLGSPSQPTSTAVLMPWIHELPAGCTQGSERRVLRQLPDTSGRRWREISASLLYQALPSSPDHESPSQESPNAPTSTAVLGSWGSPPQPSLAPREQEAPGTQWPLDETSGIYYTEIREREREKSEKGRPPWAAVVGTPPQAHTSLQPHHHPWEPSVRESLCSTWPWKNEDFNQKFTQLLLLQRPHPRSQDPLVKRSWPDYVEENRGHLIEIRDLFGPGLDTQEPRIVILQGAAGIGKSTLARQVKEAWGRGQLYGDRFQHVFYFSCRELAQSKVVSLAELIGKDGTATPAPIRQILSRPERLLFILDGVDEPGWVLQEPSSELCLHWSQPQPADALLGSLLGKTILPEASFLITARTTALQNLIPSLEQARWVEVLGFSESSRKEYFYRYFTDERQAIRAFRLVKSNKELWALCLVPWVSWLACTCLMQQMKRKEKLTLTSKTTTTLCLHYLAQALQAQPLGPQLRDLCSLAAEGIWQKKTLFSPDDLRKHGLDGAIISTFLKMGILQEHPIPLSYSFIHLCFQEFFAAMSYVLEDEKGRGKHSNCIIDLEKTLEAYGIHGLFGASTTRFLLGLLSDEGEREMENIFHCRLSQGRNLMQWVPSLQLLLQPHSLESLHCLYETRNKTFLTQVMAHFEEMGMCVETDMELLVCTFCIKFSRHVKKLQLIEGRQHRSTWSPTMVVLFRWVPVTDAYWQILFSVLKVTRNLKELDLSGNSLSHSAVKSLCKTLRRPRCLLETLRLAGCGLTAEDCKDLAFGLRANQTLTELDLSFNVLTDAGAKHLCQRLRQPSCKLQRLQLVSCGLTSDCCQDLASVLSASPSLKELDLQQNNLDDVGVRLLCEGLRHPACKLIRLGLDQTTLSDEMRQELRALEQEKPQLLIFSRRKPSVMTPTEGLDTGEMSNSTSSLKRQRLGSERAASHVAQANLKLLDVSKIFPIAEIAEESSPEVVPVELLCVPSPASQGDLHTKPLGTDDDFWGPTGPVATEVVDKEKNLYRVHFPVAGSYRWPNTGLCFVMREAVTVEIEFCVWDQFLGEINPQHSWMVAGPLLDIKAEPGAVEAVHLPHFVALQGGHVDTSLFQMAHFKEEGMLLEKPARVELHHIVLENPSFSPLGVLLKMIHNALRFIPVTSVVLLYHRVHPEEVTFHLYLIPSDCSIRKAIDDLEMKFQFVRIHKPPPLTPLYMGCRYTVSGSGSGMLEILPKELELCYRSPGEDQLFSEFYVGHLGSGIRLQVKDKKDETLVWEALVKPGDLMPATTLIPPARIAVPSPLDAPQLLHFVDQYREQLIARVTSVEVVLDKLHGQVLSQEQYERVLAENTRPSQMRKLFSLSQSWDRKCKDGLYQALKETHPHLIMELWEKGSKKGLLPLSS", "test": "GST binding assay with 35S-methionine-labeled NLRP1", "details": "purified GST-Orf63 on glutathione beads", "method": "(§1) In-vitro transcription/translation: [^35S]-methionine (Perkin-Elmer) labeled NLRP1, NLRP3 and control luciferase proteins were prepared using TnT T7 Quick Coupled Transcription/Translation System (Promega) according to manufacturer's instructions. pcDNA3-NLRP1 and pcDNA3-NLRP3 plasmids were used for the transcription/translation reaction.\n(§2) GST binding Assay: Expression and purification of GST fusion proteins were performed as previously described (29) and equal amounts of GST and GST-Orf63 were bound to glutathione beads (29). Equivalent amounts (1×10^5 cpm) of ^35S-methionine labeled NLRP1, NLRP3 and luciferase proteins were incubated with the GST and GST-Orf63 bound protein in NETN+ buffer plus protease inhibitors for an hour at 4° C. NETN+ buffer comprised of 20 mM Tris (pH 7.5), 100 mM NaCl, 1 mM EDTA, 0.1% NP-40, 1 mM DTT. The bound complexes were washed five times (5 minute washes) in NETN+ buffer. The samples were subjected to SDS-PAGE. The gel was fixed, dried and exposed to a phosphoimager."}, "NLRP3": {"target": "T3, NLRP3 (Homo sapiens, UniProt Q96P20)", "T3 construct": "primers designed to the open reading frames of procaspase-1, pro-IL-1beta, NOD1, NOD2, and NLRP3; expressed in transfected cells; host or cells: 293T", "T3 sequence (Q96P20 whole entry)": "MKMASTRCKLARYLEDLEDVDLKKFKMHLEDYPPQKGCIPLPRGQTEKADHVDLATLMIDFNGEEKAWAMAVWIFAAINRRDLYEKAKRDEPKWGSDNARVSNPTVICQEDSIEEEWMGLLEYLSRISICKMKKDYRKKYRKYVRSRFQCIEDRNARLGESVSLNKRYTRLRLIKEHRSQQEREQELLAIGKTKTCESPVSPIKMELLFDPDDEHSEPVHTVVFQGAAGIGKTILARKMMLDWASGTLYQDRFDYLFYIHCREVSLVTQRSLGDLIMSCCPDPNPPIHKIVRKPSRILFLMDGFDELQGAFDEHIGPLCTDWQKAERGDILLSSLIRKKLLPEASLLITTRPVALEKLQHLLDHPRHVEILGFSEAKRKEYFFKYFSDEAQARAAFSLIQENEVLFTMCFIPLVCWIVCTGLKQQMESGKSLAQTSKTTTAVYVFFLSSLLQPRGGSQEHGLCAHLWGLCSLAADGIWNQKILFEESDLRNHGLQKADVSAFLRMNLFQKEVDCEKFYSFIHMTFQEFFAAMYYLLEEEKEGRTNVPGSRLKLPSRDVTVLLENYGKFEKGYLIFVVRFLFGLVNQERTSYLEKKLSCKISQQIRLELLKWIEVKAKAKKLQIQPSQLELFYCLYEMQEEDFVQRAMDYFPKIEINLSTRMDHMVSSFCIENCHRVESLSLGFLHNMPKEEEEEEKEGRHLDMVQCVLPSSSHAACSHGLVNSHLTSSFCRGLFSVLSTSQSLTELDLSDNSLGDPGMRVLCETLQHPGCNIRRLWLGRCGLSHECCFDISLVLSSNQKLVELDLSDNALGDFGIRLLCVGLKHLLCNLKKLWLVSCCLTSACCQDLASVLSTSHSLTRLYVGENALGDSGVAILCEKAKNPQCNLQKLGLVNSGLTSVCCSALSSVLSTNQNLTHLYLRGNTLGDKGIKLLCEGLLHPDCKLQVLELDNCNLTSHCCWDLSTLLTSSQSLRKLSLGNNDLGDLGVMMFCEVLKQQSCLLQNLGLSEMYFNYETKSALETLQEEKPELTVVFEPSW", "test": "GST binding assay with 35S-methionine-labeled NLRP3", "details": "purified GST-Orf63 on glutathione beads", "method": "as §1, §2"}}, "data": [{"molecule": "GST-Orf63 (other, N-terminal GST fusion and C-terminal FLAG tag are not carried by the letters, also called GST-tagged Orf63; purified GST-Orf63 protein; not shown: N-terminal GST of the pGex5p-1 vector with its protease-site linker; C-terminal FLAG tag) MDGTDALEKLTKGLSGGGGSLHQTKLLMEFQLRGLPVPALLNSSTTEQFLNTVAQLPTDLSKFIRDYRVFALVRAAYFLEPPSSIDPLEAARALGRLVDILSSQPPQNTAPAQPPTSDDTLNNCTLLKLLAHYADQIAGFKTPALPPVPPGIIGLFTCVEQMYHACFQKYWAAALPPMWILTYDPPTSPLQDWLIVAYGNKEGLLLPSGIPSEEVLAKTLVTEHHELFVSRSNSTETAVTMPVSKERALAIYRVFAKGEVVAENTPILAFTDVELSTLKPHYLFIYDFIIEALCKSYTYSCTQARLESFLSRGIDFMTDLGQYLDTATSGKQQLTHSQIKEIKYRLLSCGLSASACDVFRTVIMTLPYRPTPNLANLSTFMGMVHQLTMFGHYFYRCLGSYSPTGLAFTELQKILTRASAEQTERNPWRHPGISDIPLRWKISRALAFFVPPAPINTLQRVYAALPSQLMRAIFEISVKTTWGGAVPANLARDIDTGPNTQHISSTPPPTLKDVETYCQGLRVGDTEYDEDIVRSPLFADAFTKSHLLPILREVLENRLQKNRALFQIRWLIIFAAEAATGLIPARRPLARAYFHIMDILEERHSQDALYNLLDCIQELFTHIRQAVPDAQCPHAFLQSLFVFQFRPFVLKHQQGVTLFLDGLQTSLPPVISLANLGDKLCRLEFEYDSEGDFVRVPVAPPEQPPHVHLSHFKKTIQTIEQATREATVAMTTIAKPIYPAYIRLLQRLEYLNRLNHHILRIPFPQDALSELQETYLAAFARLTKLAADAANTCSYSLTKYFGVLFQHQLVPTAIVKKLLHFDEAKDTTEAFLQSLAQPVVQGQRQGAAGGSGVLTQKELELLNKINPQFTDAQANIPPSIKRSYSNKYDVPEVSVDWETYSRSAFEAPDDELRFVPLTLAGLRKLFVE", "values": [{"measurement": "binding result", "setting": "[1]", "value": "binds"}]}, {"molecule": "GST-Orf63: purified GST-tagged Orf63 fusion protein (protein, left off: a dimerising Fc or GST; small tags and cut ends, purified GST-tagged Orf63 fusion protein) MDGTDALEKLTKGLSGGGGSLHQTKLLMEFQLRGLPVPALLNSSTTEQFLNTVAQLPTDLSKFIRDYRVFALVRAAYFLEPPSSIDPLEAARALGRLVDILSSQPPQNTAPAQPPTSDDTLNNCTLLKLLAHYADQIAGFKTPALPPVPPGIIGLFTCVEQMYHACFQKYWAAALPPMWILTYDPPTSPLQDWLIVAYGNKEGLLLPSGIPSEEVLAKTLVTEHHELFVSRSNSTETAVTMPVSKERALAIYRVFAKGEVVAENTPILAFTDVELSTLKPHYLFIYDFIIEALCKSYTYSCTQARLESFLSRGIDFMTDLGQYLDTATSGKQQLTHSQIKEIKYRLLSCGLSASACDVFRTVIMTLPYRPTPNLANLSTFMGMVHQLTMFGHYFYRCLGSYSPTGLAFTELQKILTRASAEQTERNPWRHPGISDIPLRWKISRALAFFVPPAPINTLQRVYAALPSQLMRAIFEISVKTTWGGAVPANLARDIDTGPNTQHISSTPPPTLKDVETYCQGLRVGDTEYDEDIVRSPLFADAFTKSHLLPILREVLENRLQKNRALFQIRWLIIFAAEAATGLIPARRPLARAYFHIMDILEERHSQDALYNLLDCIQELFTHIRQAVPDAQCPHAFLQSLFVFQFRPFVLKHQQGVTLFLDGLQTSLPPVISLANLGDKLCRLEFEYDSEGDFVRVPVAPPEQPPHVHLSHFKKTIQTIEQATREATVAMTTIAKPIYPAYIRLLQRLEYLNRLNHHILRIPFPQDALSELQETYLAAFARLTKLAADAANTCSYSLTKYFGVLFQHQLVPTAIVKKLLHFDEAKDTTEAFLQSLAQPVVQGQRQGAAGGSGVLTQKELELLNKINPQFTDAQANIPPSIKRSYSNKYDVPEVSVDWETYSRSAFEAPDDELRFVPLTLAGLRKLFVE", "values": [{"measurement": "binding of 35S-methionine-labeled NLRP1", "setting": "NLRP1", "value": "bound"}, {"measurement": "binding of 35S-methionine-labeled NLRP3", "setting": "NLRP3", "value": "bound"}]}]}
